Source: US20240092867A1 (UNIVERSITY OF CHICAGO, published 2024)

Tests used:
laminin-111 = target: T1, laminin-111 (human, UniProt P25391 18-3075; P07942 22-1786; P11047 34-1609); test: ELISA, GF coated, laminin 10 nM
T1 construct: Full-length recombinant human laminin isoform (BioLamina); Chain composition is read from the isoform name
Experimental: (§1) ELISA tests were performed as previously reported. In brief, ELISA plates (med-binding, Greiner Bio-One) were coated with 50 nM GFs at 37° C. for more than 2 hrs. […] Bound laminin was detected with rabbit anti-human laminin γ1 chain antibody (1:1000 dilution, Assay biotech) or rabbit anti-human laminin α3 chain antibody (1:1000 dilution, Assay biotech). After incubation with biotinylated anti-rabbit antibody for 60 min at room temperature (RT), HRP conjugated streptavidin (Jackson ImmunoResearch) was added. After 60 min of incubation at RT, 50 μL TMB substrate (Sigma-Aldrich) was added. The reactions were stopped by adding 25 μL of 2 N H₂SO₄. Subsequently, the absorbance at 450 nm was measured with a reference of 570 nm.

laminin-211 = target: T2, laminin-211 (human, UniProt P24043 23-3122; P07942 22-1786; P11047 34-1609); test: ELISA, GF coated, laminin 10 nM
T2 construct: Full-length recombinant human laminin isoform (BioLamina); chains read from the isoform name
Experimental: as §1

laminin-411 = target: T3, laminin-411 (human, UniProt Q16363 25-1823; P07942 22-1786; P11047 34-1609); test: ELISA, GF coated, laminin 10 nM
T3 construct: Full-length recombinant human laminin isoform (BioLamina); chains read from the isoform name
Experimental: as §1

laminin-421 = target: T4, laminin-421 (human, UniProt Q16363 25-1823; P55268 33-1798; P11047 34-1609); test: ELISA, GF coated, laminin 10 nM
T4 construct: Full-length recombinant human laminin isoform (BioLamina); chains read from the isoform name
Experimental: as §1

laminin-511 = target: T5, laminin-511 (human, UniProt O15230 36-3695; P07942 22-1786; P11047 34-1609); test: ELISA, GF coated, laminin 10 nM
T5 construct: Full-length recombinant human laminin isoform (BioLamina); chains read from the isoform name
Experimental: as §1

laminin-521 = target: T6, laminin-521 (human, UniProt O15230 36-3695; P55268 33-1798; P11047 34-1609); test: ELISA, GF coated, laminin 10 nM
T6 construct: Full-length recombinant human laminin isoform (BioLamina); chains read from the isoform name
Experimental: as §1

human plasma-derived vWF = target: T7, human plasma-derived vWF (human, UniProt P04275 764-2813); test: ELISA, GF coated 50 nM, vWF 1 µg/mL
T7 construct: mature; also called plasma-derived purified vWF; von Willebrand factor
Experimental: ELISA tests were performed as previously reported1. In brief, ELISA plates (med-binding, Greiner Bio-One) were coated with 50 nM GFs at 37° C. for 2 hrs. […] Then, HRP conjugated goat anti-rabbit antibody (Jackson ImmunoResearch) was added. After 60 min of incubation, 50 μL TMB substrate (Sigma-Aldrich) was added. The reaction was stopped by adding 25 μL of 2N H2SO4. Subsequently, the absorbance at 450 nm was measured and subtracted the absorbance at 570 nm.

[1] = target: T8, fibroblast growth factor (FGF)-2 (human, UniProt P09038 143-288); test: ELISA; peptide coated at 10 µg/mL, 1 µg/mL FGF-2 in solution, bound GF detected with antibody [panel FGF-2]
T8 construct: mature; Purchased in mature form
T8 sequence (P09038 143-288): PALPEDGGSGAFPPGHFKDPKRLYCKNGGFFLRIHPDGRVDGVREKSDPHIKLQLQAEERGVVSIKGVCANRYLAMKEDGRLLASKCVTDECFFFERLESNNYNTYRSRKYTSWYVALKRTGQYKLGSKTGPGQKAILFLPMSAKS
Experimental: (§2) FIG. 9. […] Affinity of GFs against chemically synthesized peptides that are scrambled (Scr) the sequence of α3₃₀₄₃₋₃₀₆₂. ELISA plates were coated with 10 μg/mL laminin peptide and further incubated with VEGF-A165, PlGF-2, PDGF-BB, or FGF-2. Concentrations were 1 μg/mL for GFs. Bound GF was detected with a specific antibody for each GF (n=4, mean±SEM). Statistical analyses were done using one-way ANOVA. *p<0.05, **p<0.01. Sequence of the peptides are described in Table 2.
(§3) ELISA tests were performed as described above. […] 1 μg/mL of BSA served as non-binding protein control. After blocking with 2% BSA PBS-0.05% Tween 20 (PBS-T) solution, 1 μg/mL of the recombinant human proteins (VEGF-A121, VEGF-A165, PlGF-1, PlGF-2, PDGF-BB or FGF-2) or 10 μg/mL of biotinylated heparin (Sigma-Aldrich) were added. Bound GF was detected with biotinylated antibodies for human VEGF, PlGF, PDGF-BB, or FGF-2 (R&D Systems). The antibodies were detected by streptavidin-HRP (R&D Systems).

[2] = target: T9, placental growth factor (PlGF)-2 (human, UniProt P49763-3 19-170); test: ELISA; peptide coated at 10 µg/mL, 1 µg/mL PlGF-2 in solution, bound GF detected with antibody [panel PlGF-2]
T9 construct: mature; Purchased in mature form
T9 sequence (looked up): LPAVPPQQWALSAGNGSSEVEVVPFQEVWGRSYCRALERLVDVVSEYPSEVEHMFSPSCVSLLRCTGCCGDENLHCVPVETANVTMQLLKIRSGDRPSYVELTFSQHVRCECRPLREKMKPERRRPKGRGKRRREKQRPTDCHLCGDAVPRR
Experimental: as §2, §3

[3] = target: T10, platelet-derived growth factor (PDGF)-BB (human, UniProt P01127 82-190); test: ELISA; peptide coated at 10 µg/mL, 1 µg/mL PDGF-BB in solution, bound GF detected with antibody [panel PDGF-BB]
T10 construct: mature; Purchased in mature form
T10 sequence (P01127 82-190): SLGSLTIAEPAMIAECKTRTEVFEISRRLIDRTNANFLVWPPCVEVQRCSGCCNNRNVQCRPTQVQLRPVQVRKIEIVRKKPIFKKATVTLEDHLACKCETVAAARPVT
Experimental: as §2, §3

[4] = target: T11, vascular endothelial growth factor (VEGF)-A165 (human, UniProt P15692-4 27-191); test: ELISA; peptide coated at 10 µg/mL, 1 µg/mL VEGF-A165 in solution, bound GF detected with antibody [panel VEGF-A165]
T11 construct: mature; Purchased in mature form, not glycosylated
T11 sequence (P15692 other isoform, or with tags, fused parts or gaps limits assumed): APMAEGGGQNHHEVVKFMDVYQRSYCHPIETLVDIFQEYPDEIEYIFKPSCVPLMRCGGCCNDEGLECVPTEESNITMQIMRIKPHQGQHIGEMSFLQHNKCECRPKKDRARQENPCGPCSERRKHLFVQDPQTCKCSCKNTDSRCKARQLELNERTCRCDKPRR
Experimental: as §2, §3

B1: fibroblast growth factor (FGF)-18 (ligand, UniProt O76093 28-207, looked up)
chain: EENVDFRIHVENQTRARDDVSRKQLRLYQLYSRTSGKHIQVLGRRISARGEDGDKYAQLLVETDTFGSQVRIKGKETEFYLCMNRKGKLVGKPDGTSKECVFIEKVLENNYTALMSAKYSGWYVGFTKKGRPRKGPKTRENQQDVHFMKRYPKGQPELQKPFKYTTVTKRSRRIRPTHPA
notes: mature; Purchased in mature form
binding result (laminin-111): binds
binding result (laminin-211): binds
binding result (laminin-411): binds
binding result (laminin-421): binds
binding result (laminin-511): binds
binding result (laminin-521): binds
binding result (human plasma-derived vWF): binds

B2: neurotrophin (NT)-3 (ligand, UniProt P20783 139-257, looked up)
chain: YAEHKSHRGEYSVCDSESLWVTDKSSAIDIRGHQVTVLGEIKTGNSPVKQYFYETRCKEARPVKNGCRGIDDKHWNSQCKTSQTYVRALTSENNKLVGWRWIRIDTSCVCALSRKIGRT
notes: as for B1
binding result (laminin-111): binds
binding result (laminin-211): binds
binding result (laminin-411): binds
binding result (laminin-421): binds
binding result (laminin-511): binds
binding result (laminin-521): binds
binding result (human plasma-derived vWF): binds

CRKKKRKKKALLLGIGDFNSEVTDG (Scrambled peptide) [α3 3043-3067 Scr3]
binding result [1]: binds
binding result [2]: binds
binding result [3]: binds
binding result [4]: binds

B3: fibroblast growth factor (FGF)-7 (ligand, UniProt P21781 32-194, looked up)
chain: CNDMTPEQMATNVNCSSPERHTRSYDYMEGGDIRVRRLFCRTQWYLRIDKRGKVKGTQEMKNNYNIMEIRTVAVGIVAIKGVESEFYLAMNKEGKLYAKKECNEDCNFKELILENHYNTYASAKWTHNGGEMFVALNQKGIPVRGKKTKKEQKTAHFLPMAIT
notes: as for B1
binding result (laminin-111): binds
binding result (laminin-211): binds
binding result (laminin-411): binds
binding result (laminin-421): binds
binding result (laminin-511): binds
binding result (laminin-521): binds
binding result (human plasma-derived vWF): binds

RKTDALELVFLKKGGIGSKKCNDKR (Scrambled peptide) [α3 3043-3067 Scr2]
binding result [1]: binds
binding result [2]: binds
binding result [3]: binds
binding result [4]: binds

B4: epidermal growth factor (EGF) (ligand, UniProt P01133 971-1023, looked up)
chain: NSDSECPLSHDGYCLHDGVCMYIEALDKYACNCVVGYIGERCQYRDLKWWELR
notes: as for B1
binding result (human plasma-derived vWF): no binding

B5: C-X-C motif ligand (CXCL)-11 (ligand, UniProt O14625 22-94, looked up)
chain: FPMFKRGRCLCIGPGVKAVKVADIEKASIMYPSNNCDKIEVIITLKENKGQRCLNPKSKQARLIIKKVERKNF
notes: as for B1
binding result (laminin-111): no binding (tested: A450 0.1)
binding result (laminin-211): no binding (tested: A450 0.1)
binding result (laminin-411): no binding (tested: A450 0.1)
binding result (laminin-421): no binding (tested: A450 0.1)
binding result (laminin-511): no binding (tested: A450 0.1)
binding result (laminin-521): no binding (tested: A450 0.1)
binding result (human plasma-derived vWF): binds

KKRKLVALTDFLGICGSENDGRKKK (Scrambled peptide) [α3 3043-3067 Scr4]
binding result [1]: binds
binding result [2]: binds
binding result [3]: binds
binding result [4]: binds

B6: fibroblast growth factor (FGF)-10 (ligand, UniProt O15520 38-208, looked up)
chain: QALGQDMVSPEATNSSSSSFSSPSSAGRHVRSYNHLQGDVRWRKLFSFTKYFLKIEKNGKVSGTKKENCPYSILEITSVEIGVVAVKAINSNYYLAMNKKGKLYGSKEFNNDCKLKERIEENGYNTYASFNWQHNGRQMYVALNGKGAPRRGQKTRRKNTSAHFLPMVVHS
notes: as for B1
binding result (laminin-111): binds
binding result (laminin-211): binds
binding result (laminin-411): binds
binding result (laminin-421): binds
binding result (laminin-511): binds
binding result (laminin-521): binds

B7: TGF-β3 (ligand, UniProt P10600 301-412, looked up)
chain: ALDTNYCFRNLEENCCVRPLYIDFRQDLGWKWVHEPKGYYANFCSGPCPYLRSADTTHSTVLGLYNTLNPEASASPCCVPQDLEPLTILYYVGRTPKVEQLSNMVVKSCKCS
notes: as for B1
binding result (human plasma-derived vWF): no binding

ALLLGIGRDFNKKKRKKKSEVTDGC (Scrambled peptide) [α3 3043-3067 Scr6]
binding result [1]: binds
binding result [2]: binds
binding result [3]: binds
binding result [4]: binds

B8: brain-derived neurotrophic factor (BDNF) (ligand, UniProt P23560 129-247, looked up)
chain: HSDPARRGELSVCDSISEWVTAADKKTAVDMSGGTVTVLEKVPVSKGQLKQYFYETKCNPMGYTKEGCRGIDKRHWNSQCRTTQSYVRALTMDSKKRIGWRFIRIDTSCVCTLTIKRGR
notes: as for B1
binding result (laminin-111): binds
binding result (laminin-211): binds
binding result (laminin-411): binds
binding result (laminin-421): binds
binding result (laminin-511): binds
binding result (laminin-521): binds

B9: bone morphogenetic protein (BMP)-2 (ligand, UniProt P12643 283-396, looked up)
chain: QAKHKQRKRLKSSCKRHPLYVDFSDVGWNDWIVAPPGYHAFYCHGECPFPLADHLNSTNHAIVQTLVNSVNSKIPKACCVPTELSAISMLYLDENEKVVLKNYQDMVVEGCGCR
notes: mature
binding result (laminin-111): binds
binding result (laminin-211): binds
binding result (laminin-411): binds
binding result (laminin-421): binds
binding result (laminin-511): binds
binding result (laminin-521): binds
binding result (human plasma-derived vWF): binds

LVRAKLTDKFLGKRIGSKECNKDKG (Scrambled peptide) [α3 3043-3067 Scr5]
binding result [1]: binds
binding result [2]: binds
binding result [3]: binds
binding result [4]: binds

RLVKALKTDKFLGRIGSEKCNDKGK (Scrambled peptide) [α3 3043-3067 Scr1]
binding result [1]: binds
binding result [2]: binds
binding result [3]: binds
binding result [4]: binds

B10: bone morphogenetic protein (BMP)-3 (ligand, UniProt P12645 363-472, looked up)
chain: QWIEPRNCARRYLKVDFADIGWSEWIISPKSFDAYYCSGACQFPMPKSLKPSNHATIQSIVRAVGVVPGIPEPCCVPEKMSSLSILFFDENKNVVLKVYPNMTVESCACR
notes: as for B1
binding result (laminin-111): binds
binding result (laminin-211): binds
binding result (laminin-411): binds
binding result (laminin-421): binds
binding result (laminin-511): binds
binding result (laminin-521): binds
